Measurements published in US20250122274A1 (SCHOLAR ROCK, published 2025).
Each block holds one binder with its values, some of them ahead of it.

Tests used:
[1] = target: cyno pro-myostatin (cynomolgus monkey); assay: ELISA-type titration, OD 450 nm, Cyno-Pro-GDF-8 Plate 1; protocol not described in the text
[2] = target: cyno pro-myostatin (cynomolgus monkey); assay: ELISA-type titration, OD 450 nm, Cyno-Pro-GDF-8 Plate 2; protocol not described in the text
[3] = target: T1, murine pro-myostatin (mouse, UniProt O08689 25-376, biotinylated (SPR)); assay: ELISA-type titration, OD 450 nm, Mu-Pro-GDF-8 Plate 1; protocol not described in the text
T1 construct: also called proGDF8 (mouse); mouse pro-myostatin

[4] = target: T1, murine pro-myostatin; assay: ELISA-type titration, absorbance 450 nm, panel Murine Pure Pro-GDF-8; protocol not described in the text
[5] = target: T2, human pro-myostatin (human, UniProt O14793 24-375, biotinylated (SPR)); assay: SPR Biacore 8K, biotinylated antigen captured
T2 construct: Disulfide-linked homodimer; also called proGDF8 (human)

B1: Ab110 (antibody, human IgG4 S228P, kappa, V domains shown)
VH: QVQLVQSGAEVKKPGASVKVSCKVSEYTFTNYDIHWVRQAPGKGLEWMGGISAYHGNAIYAQKFQGRVTMTEDTSTDTAYMELSSLKSEDTAVYYCARDRVRRDYYNFGMDVWGQGTTVTVSS
VL: DIQMTQSPSSVSASVGDRVTITCRASEDITSYLAWYQQKPGKAPKLLIYDVSSLQSGVPSRFSGSGSGTDFTLTISSLQPEDFANYYCLQHNAYPYGFGGGTKVEIKR
- EC50 (read off the curve) [1]: 0.3 nM

B5: Ab109 (antibody, human IgG4 S228P, kappa, V domains shown)
VH: EVQLVESGGGLVQPGGSLRLSCAASGFTFSSYGMSWVRQAPGKGLELVASFTGSGGTYYPDSVKGRFTISRDNAKNSLYLQMNSLRAEDTAVYYCARDLLIRFLEWSHYYGMDVWGQGTTVTVSS
VL: DIVMTQSPLSLPVTPGEPASISCRSSQSLLHSSGHNFLHWYLQKPGQSPQLLIYEVSNRVSGVPDRFSGSGSGTDFTLKISRVEAEDVGVYYCMQQTQYPPTFGGGTKVEIKR
notes: also called Ab109 Human IgG4
- koff [5]: ~0.000916 s⁻¹

The next lines start with the values.

- EC50 (read off the curve) [2]: 0.5 nM
B2: Ab116 (antibody, human IgG4 S228P, kappa, V domains shown)
VH: QVQLVQSGAEVKKPGASVKVSCKVSGFTFSRPAIHWVRQAPGKGLEWMGGINPNAATTIYAQKFQGRVTMTEDTSTDTAYMELSSLKSEDTAVYYCARGRLLREWELRPYDTWGQGTLVTVSS
VL: DIQMTQSPSSVSASVGDRVTITCRASQSIGKSLAWYQQKPGKAPKLLIYSASNLRSGVPSRFSGSGSGTDFTLTISSLQPEDFANYYCQQYRDVPPITFGGGTKVEIKR

- binding result [3]: binds
B3: Ab113 (antibody, human IgG4 S228P, kappa, V domains shown)
VH: QVQLVQSGAEVKKPGASVKVSCKVSGYLLTELSIHWVRQAPGKGLEWMGGIIPSFGTAIYAQKFQGRVTMTEDTSTDTAYMELSSLKSEDTAVYYCAISYSGFDLLPLDKWGQGTLVTVSS
VL: DIQMTQSPSSVSASVGDRVTITCRASQHISTWLAWYQQKPGKAPKLLIYYASSLQGGVPSRFSGSGSGTDFTLTISSLQPEDFANYYCLQTYTYPRTFGGGTKVEIKR

- EC50 (read off the curve) [4]: ~0.7 nM
B4: Ab104 (antibody, human IgG4 S228P, kappa, V domains shown)
VH: EVQLVESGGGLVQPGGSLRLSCAASGSAFSSYGMSWVRQAPGKGLELVASINSNGGSTYYPDSVKGRFTISRDNAKNSLYLQMNSLRAEDTAVYYCARDLLVKFLSWSHYYGMDVWGQGTTVTVSS
VL: DIVMTQSPLSLPVTPGEPASISCRSSQSLLHSSGHNFLHWYLQKPGQSPQLLIYEVSNRVSGVPDRFSGSGSGTDFTLKISRVEAEDVGVYYCMQQTQYPPTFGGGTKVEIKR
